{
  "source": "paper PMC3276249",
  "about": "(Molecular Microbiology, 2012)",
  "key": {"cross-linking": {"molecular_target": "the molecule itself", "assay": "cross-linking"}, "SEC": {"molecular_target": "the molecule itself", "assay": "SEC"}},
  "data": [
    {"protein": "Bcam0581 of Burkholderia cenocepacia J2315, hexahistidine-tagged (enzyme) MQLQSHPACRPFYEAGELSQLTAFYEEGRNVMWMMLRSEPRPCFNQQLVTDIIHLARVARDSGLTFDFWVTGSLVPELFNVGGDLSFFVDAIRSGRRDQLMAYARSCIDGVYEIYTGFGTGAISIAMVEGSALGGGFEAALAHHYVLAQKGVKLGFPEIAFNLFPGMGGYSLVARKANRGLAESLIATGEAHAAEWYEDCGLIDETFDAGDAYLATRTFIDVTKPKLNGIRAMLRARERVFQLSRSELMDITEAWVHAAFTIEPKDLAYMERLVMLQNRRVSKLRTV", "values": [
      {"measurement": "stoichiometry N", "setting": "cross-linking", "value": "~3"},
      {"measurement": "stoichiometry N", "setting": "SEC", "value": 3}
    ]}
  ]
}
